According to article PMC5147500 (Cell, 2016):
Non-standard residues stand in square brackets, D forms with d. No end group written: not given here. SeMet = C[Se]CC[C@H](N)C(=O)O

Columns and labels:
[1] = target: VPS26A residues 1–317, the VPS26 part of the fusion VPS26(1–317)-DMT1(545–568) (human, UniProt O75436-1 1-317); assay: crystal structure
full-length human SNX3 = full-length human SNX3 (human, UniProt O60493-1 1-162); assay: crystal structure

{VPS26(1–317)}-HLGLTAQPELYLLNTMDADSLVSR (peptide, UniProt P49281 545-568, looked up) [DMT1-II recycling signal residues 545–568, the DMT1 part of the fusion VPS26(1–317)-DMT1(545–568)]
binding result [1]: binds

{VPS26(1–321)}-TAQPELYLLNT[SeMet] (peptide, UniProt P49281 549-560, looked up) [DMT1-II recycling signal residues 549–560, the DMT1 part of the fusion VPS26(1–321)-DMT1(549–560)]
binding result (full-length human SNX3): binds

{VPS26(1–321)}-TAQPELYL[SeMet]NT[SeMet] (peptide, UniProt P49281 549-560, looked up)
binding result (full-length human SNX3): binds
